Data taken from patent publication US5871901.

Assays:
[1] = target: DP-1/E2F-1 heterodimer (murine)
[2] = test system: DP-1/E2F-1 + orf 6/7 (in SL2 cells) (Mus musculus? / Homo sapiens? / adenovirus type 5); experiment: cell_activity; conditions: enhancement by orf 6/7 over DP-1/E2F-1

Row | Substance | transcriptional activity of the adenovirus E2a promoter (pE2a CAT reporter, SL2 cells) [1] | activity [2]
1 | Ad5 orf 6/7 protein expressed from pE4 (complete Ad5 orf 6/7 cDNA) | 2 fold | 
2 | E2a promoter (-96 to +68), two E2F sites |  | 2 fold
